Assays:
Type in all cases: biochemical
[1] = pNPG (p-nitrophenyl-β-D-glucopyranoside) assay of β-glucosidase activity; details: media supernatant of shake flask culture
Experimental: A single microbial colony of Bacillus megaterium containing the vector prepared in Example 1 with the CelA gene was inoculated into 3 ml Luria-Bertani (LB) Broth ([…]) containing 10 μg/mL tetracycline. Cells were grown overnight (at least 16 hrs) in an incubator at 37° C. with shaking at 250 rpm. […]
A colorimetric pNPG (p-nitrophenyl-(β-D-glucopyranoside)-based assay was used for measuring β-glucosidase activity. In a total volume of 100 μL, 20 μL clear media supernatant containing β-glucosidase enzyme was added to 4 mM pNPG (Sigma-Aldrich, Inc. St. Louis, Mo.) solution in 50 mM sodium phosphate buffer at pH6.5. The reactions were incubated at pH 6.5, 45° C. for 1 hour. The reaction mixture was quenched with 100 μL of 1M sodium carbonate pH 11 solution. The absorbance of the solution was measured at 405 nm to determine the conversion of pNPG to p-nitrophenol. The release of p-nitrophenol (ε=17,700 M−1 cm−1) was measured at 405 nm to calculate β-glucosidase activity. […]

[2] = Enzyme stability: residual activity on pNPG after pre-incubation at high temperature and low pH; details: residual activity on pNPG at pH 7, 30° C.
Experimental: Residual activity is determined by exposing the enzyme to stress conditions of elevated temperature for a period of time and then determining the β-glucosidase activity. The β-glucosidase activity of the enzyme exposed to stress conditions (“a”) is compared to that of a control in which the enzyme is not exposed to the stress conditions (“b”), and residual activity is equal to the ratio a/b. Exemplary conditions for determining thermostability are provided in Examples 9 and 13. In one embodiment the enzymes are exposed to stress conditions of 50° C. at pH 5.5 or 55° C. at pH 5.0 or 55° C. at pH 5.5, or 65° C. at pH 5.0 for about 1 hour, and assayed at 30° C., pH 7, for about 0.1 hour.
A colorimetric pNPG (p-nitrophenyl-(β-D-glucopyranoside)-based assay was used for measuring β-glucosidase activity. In a total volume of 100 μL, 20 μL clear media supernatant containing β-glucosidase enzyme was added to 4 mM pNPG (Sigma-Aldrich, Inc. St. Louis, Mo.) solution in 50 mM sodium phosphate buffer at pH6.5. The reactions were incubated at pH 6.5, 45° C. for 1 hour. The reaction mixture was quenched with 100 μL of 1M sodium carbonate pH 11 solution. The absorbance of the solution was measured at 405 nm to determine the conversion of pNPG to p-nitrophenol. The release of p-nitrophenol (ε=17,700 M−1 cm−1) was measured at 405 nm to calculate β-glucosidase activity. Detectable β-glucosidase activity was observed under high throughput screening conditions (pH 7, 50° C.).
Four CelA variants and wildtype CelA were characterized to determine their stabilities at high temperature (55° C.) and low pH (pH5.5) using the method of Example 5A. The samples containing various CelA variant enzymes were pre-incubated at pH 5.5, 55° C. for 0-6 hrs. The residual enzyme activity after the thermal challenge was measured using pNPG as substrate at pH 7, 30° C. for 1 hr. […] The mutations listed in the table are indicated relative to SEQ ID NO: 4, the wildtype CelA. These sequences included residues GTS prior to the N-terminus of SEQ ID NO: 4 (prepared as described in Example 1). […]

[3] = Activity profile at different temperatures and pH using cellobiose (10 g/L) as substrate
Experimental: β-glucosidase activity was also determined using a cellobiose assay, which used cellobiose as substrate. In a total volume of 100 μL, 25 μL clear media supernatant containing CelA enzyme was added to 10 g/L cellobiose (Fluka Cat. No. 22150, Sigma-Aldrich, Inc., St. Louis, Mo.) in 100 mM sodium phosphate buffer (pH 6-7) or sodium acetate buffer (pH 5-5.5). The reaction was incubated at 45-70° C. for an appropriate time (25 minutes to overnight depending on the enzyme concentration) while shaking. Glucose production was determined using an enzymatic glucose assay (K-GLUC, Megazyme, Ireland). 10 μl of each reaction was added to 190 μl GOPOD reagent (supplied as part of the K-GLUC assay kit). The reaction was incubated at 45° C. for 20 minutes and the absorbance of the solution was measured at 510 nm. The GOPOD reagent contains 50 mM Potassium phosphate buffer pH7.4, 0.011M p-hydroxybenzoic acid, 0.008% w/v sodium azide, glucose oxidase (>12,000 U/L), peroxidase (>650 U/L) and 80 mg/L 4-aminoantipyrine. The glucose oxidase enzyme in the reagent reacts with any glucose present in the sample and produces hydrogen peroxide which then reacts with the 4-aminoantipyrine to produce a quinoneimine dye in quantities proportionate with the amount of glucose present and can be measured spectrophotometrically at 510 nm. Detectable β-glucosidase activity was observed under high throughput screening conditions (i.e., pH 7, 50° C.).
The native CelA activity profile was investigated at different temperatures (40-55° C.) and pH (5.0-8.0) using cellobiose (10 g/L) as a substrate. The experimental and analytical procedures are described in Example 5.
The activity profiles for Variant Nos. 264, 366, 391, 463, and 529 were determined at different temperatures and pH using cellobiose (10 g/L) as a substrate. The experimental and analytical procedures are described in Example 5, incubating the variant with cellobiose at temperatures in the range of 45-80. The results are depicted in FIGS. 7-11. […] The temperature and pH profile for this variant is depicted in FIG. 7. […] The temperature and pH profile for this variant is depicted in FIG. 8. […] The temperature and pH profile for this variant is depicted in FIG. 9. […] (with the pH 6 optimum determined by extrapolation). The temperature and pH profile for this variant is depicted in FIG. 10. […] The temperature and pH profile for this variant is depicted in FIG. 11.

[4] = as above; remark: listed apart in the source
[5] = Glucose inhibition (glucose tolerance), cellobiose assay with cellobiose consumption determined by HPLC; details: pH 5, 55° C.; glucose concentration at which enzyme activity is 50% of the activity with no glucose

| Molecule | activity using pNPG as substrate [1] | % residual activity after 10 mins @ pH 5.5, 55° C. ([2]; pre-incubation 10 mins at pH 5.5, 55° C., 1 hr) | % residual activity after 1 hour @ pH 5.5, 55° C. ([2]; pre-incubation 1 hour at pH 5.5, 55° C.) | % residual activity after 6 hours @ pH 5.5, 55° C. ([2]; pre-incubation 6 hours at pH 5.5, 55° C., 1 hr) | pH of optimum activity [3] | temperature of optimum activity [3] | CelA activity at pH 4 and 70° C. [4] | IC50 for glucose [5] |
| --- | --- | --- | --- | --- | --- | --- | --- | --- |
| CelA wildtype: wildtype Azospirillum irakense β-glucosidase (CelA) (SEQ ID NO: 4) (protein) STAIAQEGAAPAAILHPEKWPRPATQRLIDPAVEKRVDALLKQLSVEEKVGQVIQGDIGTITPEDLRKYPLGSILAGGNSGPNGDDRAPPKEWLDLADAFYRVSLEKRPGHTPIPVLFGIDAVHGHGNIGSATIFPHNIALGATHDPELLRRIGEVTAVEMAATGIDWTFAPALSVVRDDRWGRTYEGFSEDPEIVAAYSAAIVEGVQGKFGSKDFMAPGRIVASAKHFLADGGTDQGRDQGDARISEDELIRIHNAGYPPAIDAGVLTVMASFSSWQGIKHHGHKQLLTDVLKGQMGFNGFIVGDWNAHDQVPGCTKFNCPTSLIAGLDMYMAADSWKQLYENTLAQVKDGTIPMARLDDAVRRILRVKVLAGLFEKPAPKDRPGLPGLETLGSPEHRAVGREAVRKSLVLLKNDKGTLPLSPKARVLVAGDGADNIGKQSGGWTISWQGTGNRNDEFPGATSILGGIRDAVADAGGSVEFDVAGQYKTKPDVAIVVFGEEPYAEFQGDVETLEYQPDQKQDLALLKKLKDQGIPVVAVFLSGRPMWVNPELNASDAFVAAWLPGTEGGGVADVLFTDKAGKVQHDFAGKLSYSWPRTAAQTTVNRGDADYNPLFAYGYGLTYKDKSKVGTLPEESGVPAEARQNAGIYFRAGALRLPGRFL | confirmed | 0% | 0% | 0% | 6.0 pH | 47 °C | detectable |  |
| T2A + A5T + I14M + N79D + G127N + A143M + H145R + V159E + A198S + A207F + F211Y + I222A + S225C + Q508R + A3R + S73A + V177P + I2037-des[A647-L663] (protein) SARITQEGAAPAAMLHPEKWPRPATQRLIDPAVEKRVDALLKQLSVEEKVGQVIQGDIGTITPEDLRKYPLGAILAGGDSGPNGDDRAPPKEWLDLADAFYRVSLEKRPGHTPIPVLFGIDAVHGHNNIGSATIFPHNIALGMTRDPELLRRIGEVTAEEMAATGIDWTFAPALSVPRDDRWGRTYEGFSEDPEIVASYSAAYVEGFQGKYGSKDFMAPGRAVACAKHFLADGGTDQGRDQGDARISEDELIRIHNAGYPPAIDAGVLTVMASFSSWQGIKHHGHKQLLTDVLKGQMGFNGFIVGDWNAHDQVPGCTKFNCPTSLIAGLDMYMAADSWKQLYENTLAQVKDGTIPMARLDDAVRRILRVKVLAGLFEKPAPKDRPGLPGLETLGSPEHRAVGREAVRKSLVLLKNDKGTLPLSPKARVLVAGDGADNIGKQSGGWTISWQGTGNRNDEFPGATSILGGIRDAVADAGGSVEFDVAGQYKTKPDVAIVVFGEEPYAEFRGDVETLEYQPDQKQDLTLLKKLKDQGIPVVAVFLSGRPMWVNPELNASDAFVAAWLPGTEGGGVADVLFTDKAGKVQHDFAGKLSYSWPRTAAQTTVNRGDADYNPLFAYGYGLTYKDKSKVGTLPEESGVPAEARQN |  |  |  |  |  |  |  | greater than 100 g/l |

— patent US8357523B2, “Beta-glucosidase variant enzymes and related polynucleotides” (Codexis, Inc., priority 2009, dated 2013)
